In patent publication US20060093602A1:

Biological target: gp130 on HepG2 B6 cells (UniProt P40189)
Test: cell-based or functional assay

gp130 on HepG2 B6 cells, sequence (P40189 23-918 limits assumed): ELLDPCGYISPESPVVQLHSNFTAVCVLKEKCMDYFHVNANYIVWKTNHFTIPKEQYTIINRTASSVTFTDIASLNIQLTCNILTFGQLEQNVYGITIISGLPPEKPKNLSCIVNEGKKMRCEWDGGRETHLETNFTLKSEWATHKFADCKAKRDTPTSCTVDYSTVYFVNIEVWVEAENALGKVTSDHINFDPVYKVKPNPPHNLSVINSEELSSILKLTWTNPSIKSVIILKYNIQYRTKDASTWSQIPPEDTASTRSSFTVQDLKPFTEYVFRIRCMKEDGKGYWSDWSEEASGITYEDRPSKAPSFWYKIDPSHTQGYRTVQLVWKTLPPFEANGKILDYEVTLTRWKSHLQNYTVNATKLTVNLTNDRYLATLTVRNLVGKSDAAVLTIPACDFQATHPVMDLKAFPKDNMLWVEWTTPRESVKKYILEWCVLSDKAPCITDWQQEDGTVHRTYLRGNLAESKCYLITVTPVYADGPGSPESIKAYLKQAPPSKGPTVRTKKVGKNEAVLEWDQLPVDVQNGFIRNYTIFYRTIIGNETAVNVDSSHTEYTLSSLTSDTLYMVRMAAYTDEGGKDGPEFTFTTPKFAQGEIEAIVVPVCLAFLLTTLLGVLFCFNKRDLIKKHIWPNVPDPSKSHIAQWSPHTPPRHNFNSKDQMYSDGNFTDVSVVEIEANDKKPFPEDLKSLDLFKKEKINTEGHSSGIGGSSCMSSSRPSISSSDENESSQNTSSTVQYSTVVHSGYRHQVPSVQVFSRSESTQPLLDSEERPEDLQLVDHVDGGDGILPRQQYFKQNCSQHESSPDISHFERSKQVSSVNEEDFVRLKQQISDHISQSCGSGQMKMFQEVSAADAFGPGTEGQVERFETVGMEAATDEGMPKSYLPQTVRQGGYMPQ

Q: How did the EC50, sPAP, HepG2 B6, Expt 1 turn out when “OSM-GST L13A (from UniProt P08515 1-218) (ligand)” was run?
A: 0.0657 mg/L

Q: And the EC50, sPAP, HepG2 B6, Expt 2?
A: 0.0549 mg/L

Q: What about the EC50 as % of wild type, sPAP, HepG2 B6, Expt 1 of the same substance?
A: 269%

Q: What about the EC50 as % of wild type, sPAP, HepG2 B6, Expt 2 of the same substance?
A: 171%

Q: And the mean EC50 as % of wild type, sPAP, HepG2 B6?
A: 220%
